Literature values, collected in PMC12493192.
Like-named read-outs stand apart in the source and are kept apart here.

How the values were obtained:
GC-C (Homo sapiens) [1] = target: GC-C (Homo sapiens) (UniProt P25092)
GC-C (Homo sapiens) [2] = target: GC-C (Homo sapiens) (UniProt P25092); remark: listed apart in the source

Sequence of UniProt P25092 (P25092 24-430): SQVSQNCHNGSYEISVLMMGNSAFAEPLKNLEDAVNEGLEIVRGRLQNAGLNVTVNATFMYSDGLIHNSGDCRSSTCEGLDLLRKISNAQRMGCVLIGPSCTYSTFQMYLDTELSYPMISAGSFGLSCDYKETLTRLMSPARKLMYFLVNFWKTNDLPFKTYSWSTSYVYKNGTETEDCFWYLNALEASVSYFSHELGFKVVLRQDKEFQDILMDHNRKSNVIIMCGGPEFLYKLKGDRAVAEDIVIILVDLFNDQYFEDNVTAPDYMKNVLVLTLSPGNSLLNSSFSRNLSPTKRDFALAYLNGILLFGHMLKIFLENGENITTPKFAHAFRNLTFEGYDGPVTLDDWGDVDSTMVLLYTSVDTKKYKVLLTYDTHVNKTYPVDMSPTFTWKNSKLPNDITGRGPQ

Kd (GC-C (Homo sapiens) [1]) | Kd (GC-C (Homo sapiens) [2]) | Substance
10 nM | – | guanylin (from UniProt Q02747)
– | 1 nM | uroguanylin (from UniProt Q16661)
